How the values were obtained:
[1] = target: Ku70/80 (Ku70 subunit);Ku70/80 (Ku80 subunit);Pol λ WT (Homo sapiens;Homo sapiens;Homo sapiens, UniProt P12956;P13010;Q9UGP5 1-609;1-732;1-575, ||); assay: EMSA supershift; 20 nM Ku; EMSA: 50 mM Tris-HCl pH 7.5, 100 mM KCl, 2.5 mM MgCl2, 1 mM DTT, 4% glycerol, 0.05% Triton X-100, 0.1 mg/ml BSA, 10-20 nM DNA, 30 min at 25 °C; 4-5% native PAGE, 0.5x TBE, 4 °C; details: protein: recombinant;recombinant;recombinant; tags: FLAG;FLAG;FLAG; copies: 1;1;1; label: 5' IRDye 700 on one strand; 5-nt gap
Chain of Ku70/80 (Ku70 subunit);Ku70/80 (Ku80 subunit);Pol λ WT (P12956 whole entry, chain 1 of 3): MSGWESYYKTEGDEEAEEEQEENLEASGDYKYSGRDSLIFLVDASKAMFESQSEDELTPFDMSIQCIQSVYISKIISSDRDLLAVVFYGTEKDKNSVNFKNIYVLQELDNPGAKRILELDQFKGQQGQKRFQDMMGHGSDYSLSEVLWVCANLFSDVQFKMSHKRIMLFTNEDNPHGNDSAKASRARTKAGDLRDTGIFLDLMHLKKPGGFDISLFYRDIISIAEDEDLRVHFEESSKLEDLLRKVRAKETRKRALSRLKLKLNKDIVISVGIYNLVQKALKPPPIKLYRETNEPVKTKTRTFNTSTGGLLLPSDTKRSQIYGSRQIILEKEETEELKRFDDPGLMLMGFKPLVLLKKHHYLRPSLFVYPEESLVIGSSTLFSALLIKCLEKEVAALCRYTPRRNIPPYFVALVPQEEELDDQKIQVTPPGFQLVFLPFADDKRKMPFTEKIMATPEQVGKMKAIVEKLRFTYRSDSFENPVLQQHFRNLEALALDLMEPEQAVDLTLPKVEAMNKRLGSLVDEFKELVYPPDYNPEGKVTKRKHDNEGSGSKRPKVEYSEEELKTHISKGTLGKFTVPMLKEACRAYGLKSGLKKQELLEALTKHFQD
Chain of Ku70/80 (Ku70 subunit);Ku70/80 (Ku80 subunit);Pol λ WT (P13010 whole entry, chain 2 of 3): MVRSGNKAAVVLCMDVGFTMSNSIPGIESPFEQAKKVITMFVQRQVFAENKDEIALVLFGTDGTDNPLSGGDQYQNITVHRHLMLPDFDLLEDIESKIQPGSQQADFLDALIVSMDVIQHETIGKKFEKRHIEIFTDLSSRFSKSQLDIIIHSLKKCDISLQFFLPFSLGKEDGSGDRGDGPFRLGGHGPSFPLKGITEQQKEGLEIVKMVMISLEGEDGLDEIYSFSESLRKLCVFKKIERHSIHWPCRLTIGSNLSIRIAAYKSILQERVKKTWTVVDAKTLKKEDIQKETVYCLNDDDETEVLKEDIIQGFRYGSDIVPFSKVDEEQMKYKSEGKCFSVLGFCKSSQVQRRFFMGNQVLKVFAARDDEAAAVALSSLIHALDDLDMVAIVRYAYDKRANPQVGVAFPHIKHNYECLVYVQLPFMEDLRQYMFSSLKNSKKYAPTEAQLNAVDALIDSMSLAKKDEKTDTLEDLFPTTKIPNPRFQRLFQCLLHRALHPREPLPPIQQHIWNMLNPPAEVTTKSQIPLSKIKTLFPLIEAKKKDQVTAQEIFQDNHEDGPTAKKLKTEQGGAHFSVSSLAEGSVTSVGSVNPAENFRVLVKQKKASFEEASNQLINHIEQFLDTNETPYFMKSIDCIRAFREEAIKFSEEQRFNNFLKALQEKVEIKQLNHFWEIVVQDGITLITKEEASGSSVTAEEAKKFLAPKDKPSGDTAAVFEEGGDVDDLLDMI
Chain of Ku70/80 (Ku70 subunit);Ku70/80 (Ku80 subunit);Pol λ WT (Q9UGP5 whole entry, chain 3 of 3): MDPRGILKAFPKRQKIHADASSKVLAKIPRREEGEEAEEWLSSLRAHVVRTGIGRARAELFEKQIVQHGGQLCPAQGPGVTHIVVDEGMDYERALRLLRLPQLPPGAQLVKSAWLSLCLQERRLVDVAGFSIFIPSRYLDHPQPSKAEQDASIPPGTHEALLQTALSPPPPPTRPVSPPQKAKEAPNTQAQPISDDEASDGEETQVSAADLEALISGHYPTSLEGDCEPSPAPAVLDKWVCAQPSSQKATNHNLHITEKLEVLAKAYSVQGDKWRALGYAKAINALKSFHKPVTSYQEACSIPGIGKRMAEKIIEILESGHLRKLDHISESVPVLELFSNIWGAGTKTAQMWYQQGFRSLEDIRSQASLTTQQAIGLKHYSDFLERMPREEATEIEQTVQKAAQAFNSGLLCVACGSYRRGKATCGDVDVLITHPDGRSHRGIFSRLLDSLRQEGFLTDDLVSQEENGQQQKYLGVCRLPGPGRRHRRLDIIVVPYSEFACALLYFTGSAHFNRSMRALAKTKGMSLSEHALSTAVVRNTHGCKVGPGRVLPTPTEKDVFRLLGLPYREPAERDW

[2] = target: Ku70/80 (Ku70 subunit);Ku70/80 (Ku80 subunit);Pol λ WT;PAXX (cleaved) (Homo sapiens;Homo sapiens;Homo …, UniProt P12956;P13010;Q9UGP5;Q9BUH6 1-609;1-732;1-575;1-204, |||); assay: EMSA supershift; 20 nM Ku, 0.5 µM PAXX; EMSA: 50 mM Tris-HCl pH 7.5, 100 mM KCl, 2.5 mM MgCl2, 1 mM DTT, 4% glycerol, 0.05% Triton X-100, 0.1 mg/ml BSA, 10-20 nM DNA, 30 min at 25 °C; 4-5% native PAGE, 0.5x TBE, 4 °C; details: protein: recombinant;recombinant;recombinant;recombinant; tags: FLAG;FLAG;FLAG;GST tag cleaved (PreScission); copies: 1;1;1;2; label: 5' IRDye 700 on one strand; 5-nt gap
[3] = target: Ku70/80 (Ku70 subunit);Ku70/80 (Ku80 subunit);PAXX (cleaved) (Homo sapiens;Homo sapiens;Homo sapiens, UniProt P12956;P13010;Q9BUH6 1-609;1-732;1-204, ||); assay: as above; details: protein: recombinant;recombinant;recombinant; tags: FLAG;FLAG;GST tag cleaved (PreScission); copies: 1;1;2; label: 5' IRDye 700 on one strand; 5-nt gap
[4] = target: Ku70/80 (Ku70 subunit);Ku70/80 (Ku80 subunit);Pol λ R57A/L60A (RL) (Homo sapiens;Homo sapiens;Homo sapiens, UniProt P12956;P13010;Q9UGP5 1-609;1-732;1-575, ||R57A;L60A); assay: EMSA supershift; 20 nM Ku, 50 nM Pol λ-RL; mutant does not join DNA-bound Ku; EMSA: 50 mM Tris-HCl pH 7.5, 100 mM KCl, 2.5 mM MgCl2, 1 mM DTT, 4% glycerol, 0.05% Triton X-100, 0.1 mg/ml BSA, 10-20 nM DNA, 30 min at 25 °C; 4-5% native PAGE, 0.5x TBE, 4 °C; details: protein: recombinant;recombinant;recombinant, tags: FLAG;FLAG;FLAG, copies: 1;1;1, label: IRDye 700 at 5' end of S5, 5-nt gap (CTATT of S4 unpaired), blunt outer ends
Chain of Ku70/80 (Ku70 subunit);Ku70/80 (Ku80 subunit);Pol λ R57A/L60A (RL) (P12956 whole entry, chain 1 of 3): as the sequence (P12956 whole entry, chain 1 of 3) above
Chain of Ku70/80 (Ku70 subunit);Ku70/80 (Ku80 subunit);Pol λ R57A/L60A (RL) (P13010 whole entry, chain 2 of 3): as the sequence (P13010 whole entry, chain 2 of 3) above
Chain of Ku70/80 (Ku70 subunit);Ku70/80 (Ku80 subunit);Pol λ R57A/L60A (RL) (Q9UGP5 whole entry R57A/L60A, chain 3 of 3): as the sequence (Q9UGP5 whole entry, chain 3 of 3) above, with R57A, L60A counted along it

Binder | binding result [1] | binding result [2] | binding result [3] | binding result [4]
5nt-gapped dsDNA 30-mer (dsDNA) DNA 1: ACTGGCCGTCGTTCTATTGTACTCACTGTGATC DNA 2: GATCACAGTGAGTAC DNA 3: AACGACGGCCAGT | binds | binds | binds | 
5nt-gapped dsDNA 33-mer (dsDNA, 5'-phosphate on the 13-mer) DNA 1: ACTGGCCGTCGTTCTATTGTACTCACTGTGATC DNA 2: GATCACAGTGAGTAC DNA 3: AACGACGGCCAGT |  |  |  | no binding
